# Test results reported in the nanobody polyreactivity screen of Harvey et al. (2022).
# Assay: yeast display, Sf9 membrane polyspecificity reagent, FACS + sequencing; frameworks hold sequencing errors
# Procedure, shortened: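 Galactose induction of a Saccharomyces cerevisiae BJ5465 synthetic nanobody display library ran 36–48 hours. The cells were then stained for 1 hour at 4 °C with 10% biotinylated, detergent-solubilized Sf9 membrane reagent, pulled down on streptavidin microbeads and FACS-sorted into low and high (top ~1%) gates on expression and reagent-binding fluorescence. Labels for polyreactivity follow the gate of origin.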
row,Sequence,polyreactivity (PSR sort gate)
1,QVQLQESGGGLVQAGGSLRLTCAASRNISGSADLGWYHPAPGKEREFVASITSGGTTYYADSVKGRVTISRDNAKNTVYLQMNSLKPEDTAVYYCAVGDPADAEFGYWGQGSQVTVSS,low polyreactivity
2,QVQLVESGGGLVQAGGSLRLSCAASGFIFHKYFMGWYTQAPGKERELVAAISRSGASTYYADSVKGRFTISRDNAKNTVYLQMNSLKPEDTAVYYCAKDYQTYSGSSDFDYWGQGTQVTVSS,high polyreactivity
3,QVKLVESGRGLVQAGGSLRLSCAASGYKCIVYTMGWYRQAPGKERELVAAISSGGITAYADSVKGRITISRDNAKNTVYLQMNSLKPEYTAVYYWGQGTQVTVSS,low polyreactivity
4,QVQLVESGGGLVQAGGSLRLSCAASGITFYGYAMGWYRQAPGKERELVAAITSGGSTNYADSVKGRFTISRDNAKNTVYLQMNSLKPEDTAVYYCAADLWAYGYYYVGYDYWGQGTQVTVSS,low polyreactivity
5,QVQLVESGAGLVQAGGSLRLSCAASGGTFESYAMGWYRQAPGTERELVAAISGRGGRTYYADSVKGRFTISRDNAKNTVYLQMNSLKPEDTAVYYCRYWYYRTYYYWGQGTQVTVSS,high polyreactivity
6,QVQLVESGGGFVQAGGSLRLSCAASGRTFRYYAMGWYIQAPGKERELVASISSSGARTYYADSVKGRFTISRDNAKNTVYLQMNSLNPDDTAVYYCNARYSTTYYGTIYRGMDYWGQGTQVTVSS,high polyreactivity
7,QVQLVESGGGLVQAGGSLRLSCAASGRTIPTYDMGWYRQAPGKERELVASIRSGGRTKYADSVKGRFTISRVNAKNTVYLQMNSLKPEDTAVYYCAADRRAYYYSFDYWGQGTQVTVSS,low polyreactivity
8,QVQLVESGGGLVQAGGSLRLSCAASGSTFTIYAMGWYRQAPGKERELVAAISSGGGDTDYADSVKGRFTISRDNAKNTVYLQMNSLKPEDTAGYYCNAEGTSPRTGYDYCGQGTQVTVSS,low polyreactivity
9,QVQLVESGGGLVQAGGSLRFSCAASGRTFPVYAMGWYRQAPGKEREFVAAISYRTGSTYYADSVKGRFTISRDNAKNTVYLQMNSLKPVDSAVYYCAADYRGSYWRYYYWGQGTQVTVSS,high polyreactivity
10,QVQLVESGGGLVQAGGSIRLSCAASGLTLIVNSMGWYRQAPGKERDLVASITIGGTTYADSVKGRFTISRDNAKNTVYLQMNSLKTEVTAVYYCAADYSSFSIDTGYDYWGQGTQVTVSS,low polyreactivity
11,QVHLVESGGGLVQAGGILRLSCAASGFTFTSNAMGWYRQAPGKEREFVADISNIGGDTTYADSVKGRFTISRDNAKNTVYLQMNSLKPEDTAVYYCNADFAFIENDYWGQGTQVTVSS,low polyreactivity
12,QVQLVESGGGLVQAGGSLRLSCAASGSTIRLYAMGWYRQAPGKERELVAAISVSGGSTHYADSVKGRFTISRDNAKNTVYLQMNSLKPEDTAVYYCNAAGNPVSRYHYDYWGQGTQVTVSS,high polyreactivity
13,QVQLVESGGGLVQAGGSLRLSCAASGITFNRYAMGWYRQAPGKERELVARISLRGGNTYYADSVKGRFTISRDNAKNTVYLQMNSLKPEDTAVYYCNAPYYSRRGNSWGQGTQVTVSS,high polyreactivity
14,QVQLVESGGGLVQAGGSLRLSCAASGRTFYINAMGWSRQAPGKERELVAAITWSGGRTYYADSVKGRFTISRDNAKNTVYLQMNSLKPEDTAVYYCAVGYVYTRKGRVQPVKYDYWGQGTQVTVSS,high polyreactivity
15,QVQLVESGGGLVQAGRSLRVSCAASGRIFIWNAMGWYRQAPGNERELVAAISWSGGSTYYADSVKGRFTISRDNAKNTVYLQINSLKPEDTAVYYCAARDVRPYYVKPPVRYYYWGQGTQVTVSS,high polyreactivity
16,QVQLVESGGGLVQAGGSLRLSCAASGRIFAYNDMGWYRQAPGKEREFVAAITWSGTTFSADSVKGRFTISRDNAKNTVYLQMNSLNPEDTAVYYCAAVPYTRWKGADGDYDDVYTEYWGQGTQVTVSS,high polyreactivity
17,QVQLVESGGGLVQAGGSLRLSCAASGFLFGWNAMGGYRQAPGKERELVAAISARGGSTSYADSVKGRFTISRDTAKNTVYLQMNSLKPEDTAVYYCSAKSAFPLDYWGQGTQVTVSS,high polyreactivity
18,QVQLVESGGGLVQAGGSLRLRCAASGRTFRTYTMGWYRKAPGKERELVAAISYSGGSTYYADSVKGRFTISRDNAKNTVYLQMNSLKPEDTAVYYCAIRPYPYKYDYWGQGTQVTVSS,high polyreactivity
19,QVQRVESGGGLVQAGGSLRLSCPASGRIFRYYAMGWYRPAPGKEREMVARITRNGGTTYYADSVKGRFTISRDNAKNTVYLQMNSLKPEDTAVYYCAATYSVPYYGAWPEYDYWGQGTQVTVSS,high polyreactivity
20,QVQLVESGGGLVQAGGSLRLSCAASGYTFRYYAMGSYRQAPGKERELVAAITWSGGSTYYADSVKGRFTISRDNAKNTVYLQMNSLKPEDTAVYFCATDSARVGNFPYPQFDYWGQGTQVTVSS,low polyreactivity
21,QVQLVESGGGLVQAGGSLRLSCDASGSTFDSYAMGWYRQAPGKERELVAAINQGGGSTYYADSVKGRFTISRDNAKNTVYLQMNSLKPEDTAVYYCGADRSGSFYKLDYWGQGTQVTVSS,low polyreactivity
22,QDQLVESGGGLVQAGGSLRLSCAASGSTLEYKAIGRYRQAPGQERELVAVINRSDGSTYYADSVKGRFTISRDNAKNTVYLQMNSLKPEDTEVYYCADDRHQVSGISTEDYWGQGTQVTVSS,low polyreactivity

row,Sequence,polyreactivity (PSR sort gate)
1,QVQLVESGGGLVQAGGSLRLSCAASGRIFPWYTMGWYRQAPGKERELVATIRGSGGSTHYADSVKGRFTISRDNAKNTVYLQMNSLKPEDTAVYYCATDRPRYRYQYKFDYWGQGTQVTVSS,low polyreactivity
2,QVQLVESGGGLVQAGGSLRLSCAASGRIFIYNAMGWYRQAPGKERELVAAISVSGGRTYYADSVKGRFTISRDNAKNTVYLQMNSLKPEDTAVYYCNKVRVGSLRGYWGQGTQVTVSS,high polyreactivity
3,QVQLEESGGGLVQAGGSLRLSCAASGSTFDTYAMGWYRPAPGKERELVAGITRRGGRTYYADSVKGRFTISRDTAKNTVYLQKYSLKPEDTAVYYCNAVPQRPVGKRDHWGQGTQVTVSS,high polyreactivity
4,QVQLVESGGGLVQAGGSLHLSCAASGRIFRVNAMGWYRQAPGKERELVAAISYRGGRTYYADSVKGRFTFSRDNAKNTVYLQMNSLKPEDTAVYYCAAKVWARVDGRQFRMEYWGQGTQVTVSS,high polyreactivity
5,QVQLVESGGGLVQAGGSLRLSCAASGRTFRPYAMGWYRQAPGKERELVAAIDSSGTSTYYADSVKGRFTISRDNAKNTVYLQMNCLKPEDTAVYYCNTSLKRRRLRFNYWGQGTQVTVSS,low polyreactivity
6,QVQLVESGGGLVQAGGSLRLSCAASGSIFPFYAMGWYRQAPGKERELVAAISDRGGSTYYADSVKGRFTISRDNAKNTVYLQMNSLKPEDTAVYYGAKGGEVSQGYTDEYDYWGQGTQVTVSS,low polyreactivity
7,QVQLVESGGGLVQAGGSLRLSCAASGSTFVDNAMGWYRQAPGKERELVAAISTRGGTTYYADSVKGRFTISRDNAKNTVYLQMKSLKAEDTAVYYCAAEIFTSVWWRWVDGDYWGQGTQVTVSS,high polyreactivity
8,QVQLVESGGGLVQAGGILRLSCAASGSTFYIYAMGWYRQAPGKERELVAAISTTDGTTYYADSVKGRFTISRDNAKNTVYLQMNSLKPEDTAVYYWAAEWFGSVQPAYDYWGQGTQVTVSS,high polyreactivity
9,QVQLVESGGGIVQAGGSLRLSCAASGRIFRGYGMGWYRQAPGKERELVAAITSRGGSTYYADSVKGRFTISRDNAKNTVYLQMNSLKPEDTAVYYCAAVGVGYPGHKYYYWGQGTQVTVSS,high polyreactivity
10,QVQLVESGGGLVQAGGSLRLSCAASGSIISDYALGWYRPAPGKERELVAGISSGGGTTYADSVKGRFTISRDNAKNTVYLQMNSLKPEDTAVYYCNKQDQPVGRSGYPYGYDYWGQGTQVTVSS,low polyreactivity
11,QVQLVESGGGLVQAGGSLRLSCAASGRTFGRYAMGWYRQAPGKERELVATITSGGSTNYADSVKGRFTISRDNAKNTVYIQMKSMKPEDTAVYYCAAEFSPSRWAYSEGALRYYYWGQGTQVTVSS,low polyreactivity
12,QVQLVESGGGLVQAGGSLRLSCAASGSIIPRNAMGWYRQAPGKEMELVAAIRKSGGSTYYADSVKGRFTFCRDIAKNTVYLQMNSLKPEDTAVYYCAKPYYVPSWLSPIYNYWGQGTQVTESS,low polyreactivity
13,QVQLVESGGGLVQAGGSLRLSCAASGITLYFYAMGWYRQAPGKERELVAAISRGGRTYYADSVKGRFTISRDNAKNTVYLQMNSLKPEDTAVYYCAARYTSEYSAFDYWGQGTQVTVSS,low polyreactivity
14,QVQLVESGGCLVQAGGSLRLSCAASGFIFSTNAMAWYRQARGTERELVAAITGRGTNTYYADSVKGRFTISRDNAKNTVYLQMNSLKPEDTAVYYCAADGGSYSDYDYWGLGTQVTVSS,high polyreactivity
15,QVQLVESRGALVQAGGSLRLSCAASGSTIDAYAMGWYRQAPGKERELVAAITRSGGRTYYADSVKGRFTISRDYAKNTVFLQMNSLKPVDTAVFYCNAYCVYVRGEFWGQGTQVTVSS,high polyreactivity
16,QVQLVESGGGLVQAGGSLRLSCAASGSTLPVYAMGWYRQAPGKERELVATITDTGITNYADSVKGRFTLSRDNAKNTVYLQMNSLKPEDTAVYYCAVDSTGVWPYQVGYAPYDYWGQGTQVTVSS,low polyreactivity
17,QVQIVESGGGLIQEGGSLRLSCAASGSTFYYYAMGWYRPAPGKERELVAAIDRDDRTNYADSVKGRFTSSRDNAQNTVYLQMTSLKPEDTAVYYCAAVEIYEYDYWGQGTQVTVSS,low polyreactivity
18,QVQLVESGVGLVQAGRSLRLSCAATGIIFRDNARGSNRQAPGKERELVAANSKSGGRTYYADSVKGRFTISRDNAKNTVYLQMNSLKPDDTAVYYCAKASRYWSLYYWGQGTQVTVSS,high polyreactivity
19,QVQLVESGGGLVQAGGSLRISCAASGSTFYYYAMGWYRQAPGKERELVAAISTTGGSTYYADSVKGRFTISRDNAKNTVYLQMNSLKPEDTAVYYCNAVTRYSRVRAVSSRDSEYWGQGTQVTVSS,high polyreactivity
20,QVQLVESGGGLVQAGGSLRLSCAASGFTFHNYAMGWYRQAPGKEREFVAAITRNTASTYYADSVKGRFTISRDNAKNTVYLQMNSLKPEDTAVYYCAATDKKHRTAYDSWGQGTQVTVSS,low polyreactivity
21,QVQLVESGGGLVQAGGSLRLSCAASGRLFNEYAMGWYRQAAGNVRALVAGITWSGGSTSYADSVKGRFTISRDYAKNTVYLQMIILKPEDTAVYYCAADVYRRLRRYRYFYWGQGTQVTVSS,low polyreactivity
